Consider one molecule from patent US20120052569A1.

The experiment has as its target monoclonal 2H5 antibody produced by rat-mouse hybridoma 2H5 (FERM BP-11245). The experiment can be described thus: competitive elution of eTEV-GFPUV from 2H5 sepharose, peptide 0 to 1000 µg/mL, SDS gel.

The molecule RENLYFQGKDG [eTEV peptide (free peptide used as competitive eluent)] displayed a peptide concentration giving complete competitive elution of 30 µg/mL.
